The supplement of paper PMC10567573

B1: PTPRD (parent)
chain: PVVSMDLDPQPITDEEEGLIWVVG
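Further: lentivirally expressed fusions sorted by FACS into six bins by GFP to DsRed ratio, PSI derived from sequencing read proportions per bin multiplied by bin number.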

Variants of: B1
Experiment: protein stability index of a GFP-peptide fusion (GPS, HEK-293T) (PSI 1-6); higher = more stable
Details: c terminus: a fixed tail appended
PVVSMDLDPQNITDEEEGLIWVVG gave a protein stability index of 3.36. In the case of PVVSMDLDPQCITDEEEGLIWVVG, the protein stability index is reported as 3.36. Variant PVVSMDLDPQAITDEEEGLIWVVG has a protein stability index of 4.67. In the case of PVVSMDLDPQKITDEEEGLIWVVG, the protein stability index is reported as 3.68. PVVSMDLDPQMITDEEEGLIWVVG showed a protein stability index of 4.27. For PVVSMDLDPQTITDEEEGLIWVVG, the protein stability index was 3.77. For PVVSMDLDPQIITDEEEGLIWVVG, the protein stability index was 2.93. PVVSMDLDPQFITDEEEGLIWVVG showed a protein stability index of 3.25. PVVSMDLDPQQITDEEEGLIWVVG showed a protein stability index of 4.39. PVVSMDLDPQYITDEEEGLIWVVG gave a protein stability index of 2.67. With PVVSMDLDPQHITDEEEGLIWVVG the protein stability index was 3.8. Variant PVVSMDLDPQPITDEEEHLIWVVG has a protein stability index of 3.52. PVVSMDLDPQPITDEEEDLIWVVG showed a protein stability index of 4.59. Work on PVVSMDLDPQPITDEEELLIWVVG yielded a protein stability index of 3.16. PVVSMDLDPQPITDEEERLIWVVG showed a protein stability index of 3.28. Work on PVVSMDLDPQPITDEEEELIWVVG yielded a protein stability index of 4.22. For PVVSMDLDPQPITDEEEKLIWVVG, the protein stability index was 3.72. For PVVSMDLDPQPITDEEECLIWVVG, the protein stability index was 2.63. PVVSMDLDPQPITDEEENLIWVVG showed a protein stability index of 4.42. In the case of PVVSMDLDPQPITDEEEQLIWVVG, the protein stability index is reported as 3.37. PVVSMDLDPQPITDEEEMLIWVVG gave a protein stability index of 2. PVVSMDLDPQPITDEEESLIWVVG gave a protein stability index of 3.98. PVVSMDLDPQPITDEEEPLIWVVG gave a protein stability index of 3.19. In the case of PVVSMDLDPQPITDEEEYLIWVVG, the protein stability index is reported as 2.27. In the case of PVVSMNLDPQPITDEEEGLIWVVG, the protein stability index is reported as 4.53. PVVSMLLDPQPITDEEEGLIWVVG showed a protein stability index of 3.35. PVVSMQLDPQPITDEEEGLIWVVG showed a protein stability index of 3.5. Variant PVVSMSLDPQPITDEEEGLIWVVG has a protein stability index of 3.4. For PVVSMTLDPQPITDEEEGLIWVVG, the protein stability index was 3.25. Variant PVVSMYLDPQPITDEEEGLIWVVG has a protein stability index of 2.25. In the case of PVVSMILDPQPITDEEEGLIWVVG, the protein stability index is reported as 2.56. Variant PVVSMRLDPQPITDEEEGLIWVVG has a protein stability index of 3.67. For PVVSMVLDPQPITDEEEGLIWVVG, the protein stability index was 2.7. With PVVSMWLDPQPITDEEEGLIWVVG the protein stability index was 1.94. PVVSMPLDPQPITDEEEGLIWVVG gave a protein stability index of 3.48. In the case of PVVSMKLDPQPITDEEEGLIWVVG, the protein stability index is reported as 2.99. PVVSMDFDPQPITDEEEGLIWVVG showed a protein stability index of 4.79. PVVSMDCDPQPITDEEEGLIWVVG showed a protein stability index of 3.54. In the case of PVVSMDWDPQPITDEEEGLIWVVG, the protein stability index is reported as 3.52. Work on PVVSMDRDPQPITDEEEGLIWVVG yielded a protein stability index of 4.4. In the case of PVVSMDIDPQPITDEEEGLIWVVG, the protein stability index is reported as 3.94. Variant PVVSMDADPQPITDEEEGLIWVVG has a protein stability index of 4.31. PVVSMDNDPQPITDEEEGLIWVVG gave a protein stability index of 4.74. PVVSMDEDPQPITDEEEGLIWVVG showed a protein stability index of 4.89. Variant PVVSMDGDPQPITDEEEGLIWVVG has a protein stability index of 4.87. With PVVSMDPDPQPITDEEEGLIWVVG the protein stability index was 3.4. PVVSMDYDPQPITDEEEGLIWVVG showed a protein stability index of 4.27. In the case of PVVSMDTDPQPITDEEEGLIWVVG, the protein stability index is reported as 2.63. In the case of PVVSMDMDPQPITDEEEGLIWVVG, the protein stability index is reported as 3.29. Work on PVVSMDSDPQPITDEEEGLIWVVG yielded a protein stability index of 4.33. PVVSMDVDPQPITDEEEGLIWVVG gave a protein stability index of 4.01. PVVSMDHDPQPITDEEEGLIWVVG gave a protein stability index of 3.48. Work on PVVSMDLDTQPITDEEEGLIWVVG yielded a protein stability index of 4.18. With PVVSMDLDKQPITDEEEGLIWVVG the protein stability index was 3.71. In the case of PVVSMDLDCQPITDEEEGLIWVVG, the protein stability index is reported as 3.67. Work on PVVSMDLDRQPITDEEEGLIWVVG yielded a protein stability index of 3.58. PVVSMDLDIQPITDEEEGLIWVVG gave a protein stability index of 3.23. With PVVSMDLDGQPITDEEEGLIWVVG the protein stability index was 4.54. With PVVSMDLDFQPITDEEEGLIWVVG the protein stability index was 1.93. Variant PVVSMDLDNQPITDEEEGLIWVVG has a protein stability index of 4.12. Variant PVVSMDLDAQPITDEEEGLIWVVG has a protein stability index of 2.88. With PVVSMDLDWQPITDEEEGLIWVVG the protein stability index was 2.96. PVVSMDLDYQPITDEEEGLIWVVG gave a protein stability index of 3.41. In the case of PVVSMDLDVQPITDEEEGLIWVVG, the protein stability index is reported as 3.19. Work on PVVSMDLDDQPITDEEEGLIWVVG yielded a protein stability index of 4.52. PVVSMDLDQQPITDEEEGLIWVVG showed a protein stability index of 4.05. PVVSMDLDPQPITDEEEGWIWVVG gave a protein stability index of 3.37. With PVVSMDLDPQPITDEEEGEIWVVG the protein stability index was 4.54. Variant PVVSMDLDPQPITDEEEGVIWVVG has a protein stability index of 3.56. For PVVSMDLDPQPITDEEEGSIWVVG, the protein stability index was 4.21. In the case of PVVSMDLDPQPITDEEEGAIWVVG, the protein stability index is reported as 4.6. PVVSMDLDPQPITDEEEGQIWVVG showed a protein stability index of 3.66. PVVSMDLDPQPITDEEEGTIWVVG gave a protein stability index of 4.91. PVVSMDLDPQPITDEEEGFIWVVG gave a protein stability index of 3.65. PVVSMDLDPQPITDEEEGNIWVVG showed a protein stability index of 4.57. PVVSMDLDPQPETDEEEGLIWVVG gave a protein stability index of 4.94. In the case of PVVSMDLDPQPNTDEEEGLIWVVG, the protein stability index is reported as 4.28. PVVSMDLDPQPRTDEEEGLIWVVG gave a protein stability index of 4.74. Work on PVVSMDLDPQPKTDEEEGLIWVVG yielded a protein stability index of 4.84. PVVSMDLDPQPMTDEEEGLIWVVG gave a protein stability index of 3.75. PVVSMDLDPQPDTDEEEGLIWVVG showed a protein stability index of 4.52. Variant PVVSMDLDPQPCTDEEEGLIWVVG has a protein stability index of 3.66. Variant PVVSMDLDPQPHTDEEEGLIWVVG has a protein stability index of 4.07. With PVVSMDLDPQPGTDEEEGLIWVVG the protein stability index was 4.49. PVVSMDLDPQPVTDEEEGLIWVVG showed a protein stability index of 4.28. Variant PVVSMDLDPQPSTDEEEGLIWVVG has a protein stability index of 3.64. Variant PVVSMDLDPQPLTDEEEGLIWVVG has a protein stability index of 3.95. Work on PVVSMDLDPQPFTDEEEGLIWVVG yielded a protein stability index of 2.78. Variant PVVSMDLDPQPYTDEEEGLIWVVG has a protein stability index of 2.86. PVVSMDLDPQPITDKEEGLIWVVG showed a protein stability index of 3.16. Work on PVVSMDLDPQPITDWEEGLIWVVG yielded a protein stability index of 1.61. Work on PVVSMDLDPQPITDSEEGLIWVVG yielded a protein stability index of 2.9. With PVVSMDLDPQPITDCEEGLIWVVG the protein stability index was 3.25. In the case of PVVSMDLDPQPITDGEEGLIWVVG, the protein stability index is reported as 3.21.
